Values of other authors in PMC4223872.

Target: Calmodulin C-lobe (Homo sapiens) (UniProt P0DP23)
Test: ITC

Nav1.5 1489-1522, sequence (Q14524 1489-1522): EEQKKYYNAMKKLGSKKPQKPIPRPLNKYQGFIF

- Kd: 19 µM
Substance: Nav1.5 1489-1522 (from UniProt Q14524)
